For orientation: Kd means the equilibrium constant for the complex coming apart. A high value points to a looser complex.

Test [1] deals with T1, human FcRn (soluble human FcRn complexed with β2-microglobulin) (human, UniProt P61769 21-119, limits assumed).
T1 construct: also called hFcRn
Briefly: SPR, antibody captured by Protein L, human FcRn as analyte, pH 7.0, 25 C. A general note: In SPR one partner is held on a chip, and binding of the other changes the refractive index at the surface.

The target of another test is T2, mouse FcγRIV (mouse, UniProt A0A0B4J1G0 21-203).
T2 construct: bought; also called mFcgRIV; mFcgR IV; the vendor's purification tag not given
T2 sequence: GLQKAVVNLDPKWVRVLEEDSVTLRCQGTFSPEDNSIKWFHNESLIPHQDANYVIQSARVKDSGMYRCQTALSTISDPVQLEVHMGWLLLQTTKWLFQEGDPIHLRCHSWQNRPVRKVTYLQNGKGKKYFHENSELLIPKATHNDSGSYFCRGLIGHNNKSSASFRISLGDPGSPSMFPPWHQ
Put plainly: SPR, antibody captured by Protein L, mouse FcγR as analyte, pH 7.4, 25 C.

The next test addresses T3, mouse FcγRIIb (mouse, UniProt P08101 30-207, limits assumed).
T3 construct: bought; also called mFcgRIIb; mFcgR IIb
T3 sequence (looked up): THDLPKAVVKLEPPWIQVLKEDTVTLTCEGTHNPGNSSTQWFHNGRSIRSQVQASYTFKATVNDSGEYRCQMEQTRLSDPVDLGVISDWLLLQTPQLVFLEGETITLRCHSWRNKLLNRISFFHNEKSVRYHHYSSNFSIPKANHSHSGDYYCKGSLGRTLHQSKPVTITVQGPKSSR
Described as above.

For test [2], the target named is T4, human FcRn (complex with human β2-microglobulin) (human, UniProt P61769 21-119, limits assumed).
T4 construct: soluble human FcRn complexed with β2-microglobulin was used; also called hFcRn
Put plainly: SPR, pH 7.0, antibody captured by Protein L, hFcRn analyte.

In a further test the target is T5, human FcγRIIa(H) (human, UniProt P12318 36-217).
T5 construct: also called FcgRIIaH; hFcgRIIa(H)
T5 sequence: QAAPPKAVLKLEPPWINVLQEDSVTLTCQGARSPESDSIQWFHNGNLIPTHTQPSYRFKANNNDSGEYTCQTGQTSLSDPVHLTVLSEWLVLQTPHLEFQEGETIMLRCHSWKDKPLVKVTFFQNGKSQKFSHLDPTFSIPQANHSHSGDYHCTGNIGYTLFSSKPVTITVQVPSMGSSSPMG
Put plainly: SPR, pH 7.4, antibody captured by Protein L.

The target of another test is T6, human FcγRIIa(R) (human, UniProt P12318 36-217).
T6 construct: also called FcgRIIaR; hFcgRIIa(R)
T6 chain: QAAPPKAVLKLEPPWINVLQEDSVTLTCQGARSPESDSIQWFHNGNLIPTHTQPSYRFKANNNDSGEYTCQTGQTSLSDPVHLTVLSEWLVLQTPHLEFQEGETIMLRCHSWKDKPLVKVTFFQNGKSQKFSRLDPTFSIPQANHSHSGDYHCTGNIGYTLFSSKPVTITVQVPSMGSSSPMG
Briefly: SPR, pH 7.4, antibody captured by Protein L.

A further test has as its target T7, human FcγRIIb (human, UniProt P31994 43-217, limits assumed).
T7 construct: also called FcgRIIb; hFcgRIIb
T7 sequence: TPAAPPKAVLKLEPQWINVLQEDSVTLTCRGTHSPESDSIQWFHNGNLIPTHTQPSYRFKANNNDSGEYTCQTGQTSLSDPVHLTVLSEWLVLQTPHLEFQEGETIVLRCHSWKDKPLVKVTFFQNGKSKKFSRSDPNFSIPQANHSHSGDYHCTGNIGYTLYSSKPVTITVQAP
Briefly: SPR, pH 7.4, antibody captured by Protein L.

For a further test, the target named is T8, human FcγRIa (human, UniProt P12314 16-292, limits assumed).
T8 construct: also called FcgRIa; hFcgRIa
Put plainly: SPR, pH 7.4, antibody captured by Protein L.

The next test has as its target T9, human FcγRIIIa(V) (human, UniProt P08637 17-208, limits assumed).
T9 construct: also called hFcgRIIIa(V); FcγRIIIa allotype V158
Put plainly: SPR, pH 7.4, antibody captured by Protein L.

T8 sequence (P12314 16-292 limits assumed): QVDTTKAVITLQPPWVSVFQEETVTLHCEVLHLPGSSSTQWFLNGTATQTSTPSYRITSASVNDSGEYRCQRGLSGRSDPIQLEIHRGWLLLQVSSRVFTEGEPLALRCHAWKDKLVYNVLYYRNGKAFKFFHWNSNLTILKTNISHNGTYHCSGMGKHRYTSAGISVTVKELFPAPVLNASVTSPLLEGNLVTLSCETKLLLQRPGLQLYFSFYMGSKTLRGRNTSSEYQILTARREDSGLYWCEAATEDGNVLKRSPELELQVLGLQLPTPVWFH
T4 sequence (chain, as listed by the source limits assumed, chain 1 of 2): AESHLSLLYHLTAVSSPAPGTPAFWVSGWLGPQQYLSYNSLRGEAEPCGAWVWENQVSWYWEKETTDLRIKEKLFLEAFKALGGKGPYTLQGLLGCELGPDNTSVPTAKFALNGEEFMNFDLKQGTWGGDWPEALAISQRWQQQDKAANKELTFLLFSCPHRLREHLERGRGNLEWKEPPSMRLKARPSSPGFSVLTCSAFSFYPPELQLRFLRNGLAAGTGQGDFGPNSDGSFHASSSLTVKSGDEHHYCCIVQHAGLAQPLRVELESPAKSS
T4 sequence (P61769 21-119 limits assumed, chain 2 of 2): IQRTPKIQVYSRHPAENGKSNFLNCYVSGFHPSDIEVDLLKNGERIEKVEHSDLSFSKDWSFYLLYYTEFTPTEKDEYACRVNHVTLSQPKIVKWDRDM
T9 sequence (P08637 other isoform, or with tags, fused parts or gaps limits assumed): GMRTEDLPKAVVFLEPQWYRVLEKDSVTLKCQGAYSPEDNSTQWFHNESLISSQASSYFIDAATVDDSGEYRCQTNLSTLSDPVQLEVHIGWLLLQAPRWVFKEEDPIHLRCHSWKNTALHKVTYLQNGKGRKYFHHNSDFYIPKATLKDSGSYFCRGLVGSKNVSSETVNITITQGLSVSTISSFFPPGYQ
T1 sequence (chain, as listed by the source limits assumed, chain 1 of 2): as the sequence (chain, as listed by the source limits assumed, chain 1 of 2) above
T1 sequence (P61769 21-119 limits assumed, chain 2 of 2): as the sequence (P61769 21-119 limits assumed, chain 2 of 2) above

B1: antibody with VH3-IgG1-F424 heavy chain and L(WT)-CK light chain (antibody)
heavy: QVQLQESGPGLVKPSETLSLTCAVSGHSISHDHAWSWVRQPPGEGLEWIGFISYSGITNYNPSLQGRVTISRDNSKNTLYLQMNSLRAEDTAVYYCARSLARTTAMDYWGEGTLVTVSSASTKGPSVFPLAPSSKSTSGGTAALGCLVKDYFPEPVTVSWNSGALTSGVHTFPAVLQSSGLYSLSSVVTVPSSSLGTQTYICNVNHKPSNTKVDKKVEPKSCDKTHTCPPCPAPELLGGPKVFLFPPKPKDTLMISRTAEVTCVVVDVSHEDPEVKFNWYVDGVEVHNAKTKPREEQYNSTYRVVSVLTPLHQDWLNGKEYKCKVSNKALPAPIEKTISKAKGQPREPQVYTLPPSRDELTKNQVSLTCLVKGFYPSDIAVEWESNGQPENNYKTTPPVLDSDGSFFLYSKLTVDKSRWQQGNVFSCSVLHEALHYHYTQKSLSLSP
light: not shown
notes: S239K/P257A/V308P/M428L/N434Y; copies: 2 + 2
In the case of B1, in [1], the Kd turned out to be 94 nM. Further, the “BINDING AMOUNT (RU)” value is 138 RU in the test with mouse FcγRIV and -2.5 RU in the test with mouse FcγRIIb.

B2: VH3-IgG4-F890/L(WT)-CK (antibody)
heavy: QVQLQESGPGLVKPSETLSLTCAVSGHSISHDHAWSWVRQPPGEGLEWIGFISYSGITNYNPSLQGRVTISRDNSKNTLYLQMNSLRAEDTAVYYCARSLARTTAMDYWGEGTLVTVSSASTKGPSVFPLAPCSRSTSESTAALGCLVKDYFPEPVTVSWNSGALTSGVHTFPAVLQSSGLYSLSSVVTVPSSSLGTKTYTCNVDHKPSNTKVDKRVESKYGPPCPPCPAPEFLGGPSVFLFPPKPKDTLYISRTPEVTCVVVDVSQEDPEVQFNWYVDGVEVHNAKTKPREEQFNSTYRVVSVLTVLHQDWLNGKEYKCKVSNKGLPSSIEKTISKAKGQPREPQVYTLPPSQEEMTKNQVSLTCLVKGFYPSDIAVEWESNGQPENNYKTTPPVLDSDGSFFLYSRLTVDKSRWQEGNVFSCSVMHEALHYHVTQKSLSLSL
light: not shown
notes: M252Y/N434Y/Y436V in VH3-IgG4; copies: 2 + 2
With B2, binding in test [2] was put at a Kd of 140 nM. The binding amount with human FcγRIIa(H) stood at 37.5 RU; with human FcγRIIa(R) it was 92.8 RU; in the test with human FcγRIIb, 71.8 RU; with human FcγRIa, 367 RU; in the test with human FcγRIIIa(V) it was 15.5 RU.

B3: VH3-IgG4-F939/L(WT)-CK (antibody)
heavy: QVQLQESGPGLVKPSETLSLTCAVSGHSISHDHAWSWVRQPPGEGLEWIGFISYSGITNYNPSLQGRVTISRDNSKNTLYLQMNSLRAEDTAVYYCARSLARTTAMDYWGEGTLVTVSSASTKGPSVFPLAPCSRSTSESTAALGCLVKDYFPEPVTVSWNSGALTSGVHTFPAVLQSSGLYSLSSVVTVPSSSLGTKTYTCNVDHKPSNTKVDKRVESKYGPPCPPCPAPEFRGGPKVFLFPPKPKDTLYISRTPEVTCVVVDVSQEDPEVQFNWYVDGVEVHNAKTKPREEQFNSTYRVVSVLTVLHQDWLNGKEYKCKVSNKGLPSSIEKTISKAKGQPREPQVYTLPPSQEEMTKNQVSLTCLVKGFYPSDIAVEWESNGQPENNYKTTPPVLDSDGSFFLYSRLTVDKSRWQEGNVFSCSVMHEALHYHVTQKSLSLSL
light: not shown
notes: L235R/S239K/M252Y/N434Y/Y436V in VH3-IgG4; copies: 2 + 2
For B3, the Kd in test [2] stood at 110 nM. In addition, the binding amount with human FcγRIIa(H) was -0.7 RU; with human FcγRIIa(R), -0.2 RU; with human FcγRIIb, 0.4 RU; with human FcγRIa it was 1.2 RU; with human FcγRIIIa(V), -0.5 RU.

B4: VH3-IgG2-F939/L(WT)-CK (antibody)
heavy: QVQLQESGPGLVKPSETLSLTCAVSGHSISHDHAWSWVRQPPGEGLEWIGFISYSGITNYNPSLQGRVTISRDNSKNTLYLQMNSLRAEDTAVYYCARSLARTTAMDYWGEGTLVTVSSASTKGPSVFPLAPCSRSTSESTAALGCLVKDYFPEPVTVSWNSGALTSGVHTFPAVLQSSGLYSLSSVVTVPSSNFGTQTYTCNVDHKPSNTKVDKTVERKCCVECPPCPAPPVRGPKVFLFPPKPKDTLYISRTPEVTCVVVDVSHEDPEVQFNWYVDGVEVHNAKTKPREEQFNSTFRVVSVLTVVHQDWLNGKEYKCKVSNKGLPAPIEKTISKTKGQPREPQVYTLPPSREEMTKNQVSLTCLVKGFYPSDIAVEWESNGQPENNYKTTPPMLDSDGSFFLYSKLTVDKSRWQQGNVFSCSVMHEALHYHVTQKSLSLSP
light: not shown
notes: A235R/S239K/M252Y/N434Y/Y436V in VH3-IgG2; copies: 2 + 2
As for B4, the affinity in test [2], expressed as Kd, was 140 nM. Moreover, the binding amount with human FcγRIIa(H) is 1 RU; in the test with human FcγRIIa(R), 1 RU; with human FcγRIIb, 0.4 RU; with human FcγRIa, 1.3 RU; with human FcγRIIIa(V) it was 1.1 RU.

The values above are taken from patent US20200199241A1 (Chugai, published 2020).
